In patent US20190382474A1 (SURFACE ONCOLOGY, published 2019):
Changes are numbered by the printed parent chain.

T1: recombinant human IL-27 (human, UniProt Q14213 21-229; Q8NEV9 29-243)
T1 construct: Bought from R&D Systems (Cat. 2526-IL); also called hIL-27; rhIL-27
T1 sequence 1: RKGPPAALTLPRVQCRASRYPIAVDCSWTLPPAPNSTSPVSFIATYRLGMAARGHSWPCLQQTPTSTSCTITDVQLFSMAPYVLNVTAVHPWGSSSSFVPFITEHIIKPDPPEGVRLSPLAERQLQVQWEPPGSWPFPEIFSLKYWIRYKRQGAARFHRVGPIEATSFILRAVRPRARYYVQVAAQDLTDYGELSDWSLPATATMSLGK
T1 sequence 2: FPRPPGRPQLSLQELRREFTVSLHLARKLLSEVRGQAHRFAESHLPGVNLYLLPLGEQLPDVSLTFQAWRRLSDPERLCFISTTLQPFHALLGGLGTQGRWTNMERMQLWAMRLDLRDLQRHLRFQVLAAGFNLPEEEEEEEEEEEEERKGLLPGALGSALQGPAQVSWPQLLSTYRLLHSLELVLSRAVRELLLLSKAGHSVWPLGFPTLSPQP

T2: recombinant mouse IL-27 (mouse, UniProt O35228 19-228; Q8K3I6 29-234, limits assumed)
T2 construct: also called rodent recombinant IL-27
T2 sequence (looked up) 1: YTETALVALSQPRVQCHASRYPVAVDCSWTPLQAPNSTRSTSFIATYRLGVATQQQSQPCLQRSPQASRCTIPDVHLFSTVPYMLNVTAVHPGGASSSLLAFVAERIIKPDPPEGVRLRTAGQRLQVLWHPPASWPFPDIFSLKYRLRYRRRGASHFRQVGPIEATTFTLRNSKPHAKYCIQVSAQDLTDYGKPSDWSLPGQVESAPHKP
T2 sequence (looked up) 2: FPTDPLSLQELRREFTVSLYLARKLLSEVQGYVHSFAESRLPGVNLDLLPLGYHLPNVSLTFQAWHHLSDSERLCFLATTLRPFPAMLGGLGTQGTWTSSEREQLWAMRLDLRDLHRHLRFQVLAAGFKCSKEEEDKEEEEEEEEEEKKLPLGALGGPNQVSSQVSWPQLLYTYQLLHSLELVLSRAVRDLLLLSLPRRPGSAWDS

B1: SRF405 (antibody, V domains shown)
VH: QVQLVQSGAEVKKPGSSVKVSCKASGGTFVGYAISWVRQAPGQGLEWMGGIIPIFGIANYAQKFQGRVTITADESTSTAYMELSSLRSEDTAVYYCARSYYSSRWHYYYYMDVWGKGTTVTVSS
VL: DIQMTQSPSSVSASVGDRVTITCRASQGISSWLAWYQQKPGKAPKLLIYAASNLQSGVPSRFSGSGSGTDFTLTISSLQPEDFATYYCQQADDLPLTFGGGTKVEIK
notes: also called SRF405-A; SRF405-B
B2: SRF535 (antibody, V domains shown)
VH: EVQLVESGGGLVQPGGSLRLSCAASGFTFSSYGMSWVRQAPGKGLEWVANIKQDGSEKYYVDSVKGRFTISRDNAKNSLYLQMNSLRAEDTAVYYCARDAPWDIYDYYMDVWGKGTTVTVSS
VL: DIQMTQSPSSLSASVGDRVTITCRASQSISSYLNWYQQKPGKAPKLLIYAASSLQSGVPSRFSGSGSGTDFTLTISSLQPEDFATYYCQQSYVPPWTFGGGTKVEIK
notes: also called SRF535-A; SRF535-B
B3: Ab7 (antibody)
heavy: EVKLVESGGGLVQPGGSLKLFCAASGFTFTSYSMSWVRQTPEKRLEWVAYISYDGGSAYYPDTVKGRFSISRDNAKKTLYLQMSSLKSEDTAMYYCARHGDYDDDDAMDYWGQGTSVTVSSAKTTAPSVYPLAPVCGDTTGSSVTLGCLVKGYFPEPVTLTWNSGSLSSGVHTFPAVLQSDLYTLSSSVTVTSSTWPSQSITCNVAHPASSTKVDKKIEPRGPTIKPCPPCKCPAPNLLGGPSVFIFPPKIKDVLMISLSPIVTCVVVDVSEDDPDVQISWFVNNVEVHTAQTQTHREDYNSTLRVVSALPIQHQDWMSGKEFKCKVNNKDLPAPIERTISKPKGSVRAPQVYVLPPPEEEMTKKQVTLTCMVTDFMPEDIYVEWTNNGKTELNYKNTEPVLDSDGSYFMYSKLRVEKKNWVERNSYSCSVVHEGLHNHHTTKSFSRTPGK
light: DIQMTQSPASLSASVGETVTITCRASENIYSYLAWYQQKQGKSPQLLVYNAETLTEGVPSRFSGSGSGTQFSLKINSLQPEDFGNYYCQHHYGTPLTFGAGTKLDLKADAAPTVSIFPPSSEQLTSGGASVVCFLNNFYPKDINVKWKIDGSERQNGVLNSWTDQDSKDSTYSMSSTLTLTKDEYERHNSYTCEATHKTSTSPIVKSFNRNEC
notes: mouse hybridoma antibody (mIgG2a/kappa); also called isolated anti-EBI3 antibody Ab7; parental Ab7 antibody
B4: SRF543 (antibody, V domains shown)
VH: QVQLQQWGAGLLKPSETLSLTCAVYGGSFSDYEWSWIRQPPGKGLEWIGEIDWSGITNYNPSLKSRVTISVDTSKNQFSLKLSSVTAADTAVYYCARLPMYYYDSSVSTGSVDVWGQGTMVTVSS
VL: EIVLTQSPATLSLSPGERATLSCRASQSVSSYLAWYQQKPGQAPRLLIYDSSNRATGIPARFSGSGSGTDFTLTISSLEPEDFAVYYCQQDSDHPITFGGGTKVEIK
notes: also called SRF543-A; SRF543-B
B5: SRF416 (antibody, V domains shown)
VH: QVQLQQWGAGLLKPSETLSLTCAVYGGSFSGYYWSWIRQPPGKGLEWIGEIDVDGSTNYNPSLKSRVTISVDTSKNQFSLKLSSVTAADTAVYYCARDGYYYDTSPYDVWGQGTMVTVSS
VL: EIVLTQSPATLSLSPGERATLSCRASQSVSSYLAWYQQKPGQAPRLLIYDASNRATGIPARFSGSGSGTDFTLTISSLEPEDFAVYYCQQRDSFPLTFGGGTKVEIK
notes: also called SRF416-A; SRF416-B
B6: SRF382 (antibody, V domains shown)
VH: EVQLVESGGGLVKPGGSLRLSCAASGFTFSRTGMNWVRQAPGKGLEWVSSISSSSSYIYYADSVKGRFTISRDNAKNSLYLQMNSLRAEDTAVYYCARDGGRTSYTATAHNWFDPWGQGTLVTVSS
VL: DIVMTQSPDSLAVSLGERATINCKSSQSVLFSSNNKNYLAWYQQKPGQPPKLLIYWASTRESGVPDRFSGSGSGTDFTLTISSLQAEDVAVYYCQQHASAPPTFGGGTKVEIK
notes: also called SRF382-A; SRF382-B
B7: SRF384 (antibody, V domains shown)
VH: B6 VH with T32Y, S56A, Y59L
VL: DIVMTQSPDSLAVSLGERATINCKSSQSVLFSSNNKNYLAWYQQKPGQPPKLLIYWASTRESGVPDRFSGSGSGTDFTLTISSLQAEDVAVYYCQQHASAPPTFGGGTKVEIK
notes: also called SRF384-A; SRF384-B
B8: SRF529 (antibody, V domains shown)
VH: B6 VH with R31S, T32Y, G33S
VL: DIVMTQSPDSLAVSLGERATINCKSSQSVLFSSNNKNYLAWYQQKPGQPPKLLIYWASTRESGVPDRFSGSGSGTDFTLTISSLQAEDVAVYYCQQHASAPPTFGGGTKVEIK
notes: also called SRF529-A; SRF529-B
B9: SRF386 (antibody, V domains shown)
VH: B6 VH with S30A, R31S, T32Y
VL: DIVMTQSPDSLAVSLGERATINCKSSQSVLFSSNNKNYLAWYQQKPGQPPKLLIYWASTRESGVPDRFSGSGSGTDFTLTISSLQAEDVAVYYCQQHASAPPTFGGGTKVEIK
notes: also called SRF386-A; SRF386-B

Legend:
recombinant human IL-27 [1] = target: T1, recombinant human IL-27; test: SPR (BIACORE 2000) as the paragraph says; values in FIG. 9
recombinant mouse IL-27 = target: T2, recombinant mouse IL-27; test: column 'Affinity mIL-27 (M)'; method not given
recombinant human IL-27 [2] = target: T1, recombinant human IL-27; test: column 'Affinity hIL-27 (M)', property (i); method not given, paragraph 885 names SPR (BIACORE 2000)

Binder	Kd (recombinant human IL-27 [1]) [nM]	Kd (recombinant mouse IL-27) [nM]	Kd (recombinant human IL-27 [2]) [nM]	binding result (recombinant mouse IL-27)
B1	≤ 15	5.02	0.1	
B2	≤ 15		11.5	no binding
B3			1	no binding
B4		62.1	0.026	
B5				no binding
B6	≤ 15	2.5	0.0075	
B7	≤ 15	0.405	0.0024	
B8		1.33	0.0059	
B9	≤ 15	1.75	0.0034	
